The values below come from PMC5447866 (Oncogene, 2016).

The experiment has as its target His6-tagged UBR5 recombinant protein (UniProt O95071 1-2799). Nature of the experiment: pull-down.

Sequence of His6-tagged UBR5 recombinant protein (O95071 whole entry): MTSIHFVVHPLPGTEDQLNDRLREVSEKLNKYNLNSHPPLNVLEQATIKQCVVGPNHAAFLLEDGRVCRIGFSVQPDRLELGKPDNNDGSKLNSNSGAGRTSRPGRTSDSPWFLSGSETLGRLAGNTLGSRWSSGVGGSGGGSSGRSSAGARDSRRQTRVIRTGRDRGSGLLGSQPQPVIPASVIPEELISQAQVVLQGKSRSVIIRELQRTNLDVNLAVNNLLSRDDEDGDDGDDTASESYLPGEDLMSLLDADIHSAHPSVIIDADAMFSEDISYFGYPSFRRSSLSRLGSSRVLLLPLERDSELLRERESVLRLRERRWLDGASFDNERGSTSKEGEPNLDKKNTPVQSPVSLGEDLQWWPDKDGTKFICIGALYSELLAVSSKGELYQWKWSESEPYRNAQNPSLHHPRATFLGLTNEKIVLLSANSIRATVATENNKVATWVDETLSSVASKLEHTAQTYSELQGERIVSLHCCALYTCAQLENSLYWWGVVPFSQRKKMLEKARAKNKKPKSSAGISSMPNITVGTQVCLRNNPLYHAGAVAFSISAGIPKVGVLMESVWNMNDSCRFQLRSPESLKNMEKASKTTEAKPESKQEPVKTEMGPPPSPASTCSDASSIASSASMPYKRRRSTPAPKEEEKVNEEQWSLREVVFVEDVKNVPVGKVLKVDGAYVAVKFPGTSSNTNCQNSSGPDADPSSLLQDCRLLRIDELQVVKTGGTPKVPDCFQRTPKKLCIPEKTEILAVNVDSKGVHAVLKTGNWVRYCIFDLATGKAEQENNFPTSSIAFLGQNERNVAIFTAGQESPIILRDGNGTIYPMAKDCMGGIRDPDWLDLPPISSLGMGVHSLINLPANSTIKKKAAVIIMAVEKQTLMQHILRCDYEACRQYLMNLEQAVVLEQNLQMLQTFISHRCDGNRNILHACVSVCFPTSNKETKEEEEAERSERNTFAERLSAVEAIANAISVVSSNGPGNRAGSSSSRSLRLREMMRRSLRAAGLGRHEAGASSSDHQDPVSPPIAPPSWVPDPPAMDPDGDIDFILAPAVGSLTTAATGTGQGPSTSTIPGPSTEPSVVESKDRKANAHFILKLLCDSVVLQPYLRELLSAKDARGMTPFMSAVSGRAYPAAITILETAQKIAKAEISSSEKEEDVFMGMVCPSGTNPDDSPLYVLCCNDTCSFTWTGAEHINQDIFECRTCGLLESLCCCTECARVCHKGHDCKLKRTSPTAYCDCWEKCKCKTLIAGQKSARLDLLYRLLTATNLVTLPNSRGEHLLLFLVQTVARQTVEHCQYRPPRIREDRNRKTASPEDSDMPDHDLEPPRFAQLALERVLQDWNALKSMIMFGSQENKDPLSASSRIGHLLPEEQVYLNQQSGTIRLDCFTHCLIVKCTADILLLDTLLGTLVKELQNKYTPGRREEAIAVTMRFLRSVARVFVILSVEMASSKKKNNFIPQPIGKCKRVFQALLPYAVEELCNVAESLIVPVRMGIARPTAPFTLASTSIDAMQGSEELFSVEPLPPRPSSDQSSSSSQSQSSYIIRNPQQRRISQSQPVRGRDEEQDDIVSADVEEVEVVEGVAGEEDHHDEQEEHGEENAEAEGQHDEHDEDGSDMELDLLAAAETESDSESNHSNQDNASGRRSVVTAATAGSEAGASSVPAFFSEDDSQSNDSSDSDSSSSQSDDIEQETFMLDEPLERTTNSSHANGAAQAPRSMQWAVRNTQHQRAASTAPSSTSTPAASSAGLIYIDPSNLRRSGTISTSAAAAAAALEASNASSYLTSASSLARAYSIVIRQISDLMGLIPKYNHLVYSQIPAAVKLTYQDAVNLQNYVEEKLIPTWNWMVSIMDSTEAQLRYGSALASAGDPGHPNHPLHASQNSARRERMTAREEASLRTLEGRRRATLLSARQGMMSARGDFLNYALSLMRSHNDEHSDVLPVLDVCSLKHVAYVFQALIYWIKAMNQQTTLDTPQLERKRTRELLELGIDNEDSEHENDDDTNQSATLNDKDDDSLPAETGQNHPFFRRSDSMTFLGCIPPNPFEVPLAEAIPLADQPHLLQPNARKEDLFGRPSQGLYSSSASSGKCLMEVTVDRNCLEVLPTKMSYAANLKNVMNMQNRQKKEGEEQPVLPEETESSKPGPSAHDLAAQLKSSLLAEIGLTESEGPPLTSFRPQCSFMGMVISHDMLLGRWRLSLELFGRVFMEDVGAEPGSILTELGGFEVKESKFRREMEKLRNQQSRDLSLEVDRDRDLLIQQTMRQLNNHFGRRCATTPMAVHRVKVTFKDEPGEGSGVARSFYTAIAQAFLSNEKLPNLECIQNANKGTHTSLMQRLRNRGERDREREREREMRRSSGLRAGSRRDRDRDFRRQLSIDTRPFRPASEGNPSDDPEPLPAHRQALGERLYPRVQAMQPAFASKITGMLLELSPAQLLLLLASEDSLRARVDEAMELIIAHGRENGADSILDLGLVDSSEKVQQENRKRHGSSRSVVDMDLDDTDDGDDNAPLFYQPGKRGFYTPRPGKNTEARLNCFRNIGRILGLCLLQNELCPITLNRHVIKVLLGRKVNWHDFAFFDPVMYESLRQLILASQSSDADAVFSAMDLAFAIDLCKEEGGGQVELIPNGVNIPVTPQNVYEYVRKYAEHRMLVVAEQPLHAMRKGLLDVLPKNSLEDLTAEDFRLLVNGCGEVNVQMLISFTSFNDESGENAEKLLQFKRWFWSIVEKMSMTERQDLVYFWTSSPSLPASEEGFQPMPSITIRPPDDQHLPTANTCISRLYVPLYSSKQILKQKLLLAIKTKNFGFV

B1: GST-tagged MOAP-1 recombinant protein (natural protein, UniProt Q96BY2 1-351, looked up)
chain: MTLRLLEDWCRGMDMNPRKALLIAGISQSCSVAEIEEALQAGLAPLGEYRLLGRMFRRDENRKVALVGLTAETSHALVPKEIPGKGGIWRVIFKPPDPDNTFLSRLNEFLAGEGMTVGELSRALGHENGSLDPEQGMIPEMWAPMLAQALEALQPALQCLKYKKLRVFSGRESPEPGEEEFGRWMFHTTQMIKAWQVPDVEKRRRLLESLRGPALDVIRVLKINNPLITVDECLQALEEVFGVTDNPRELQVKYLTTYQKDEEKLSAYVLRLEPLLQKLVQRGAIERDAVNQARLDQVIAGAVHKTIRRELNLPEDGPAPGFLQLLVLIKDYEAAEEEEALLQAILEGNFT
For B1, the binding result was “binds”.
